# According to patent US20200086139A1, “COMBINATION THERAPY FOR THE TREATMENT OF GLIOBLASTOMA” (Genentech, Inc., priority 2012, published 2020):
# How the values were obtained:
# [1] = test system: newly diagnosed glioblastoma; assay: AVAglio Phase III trial, efficacy (PFS, ORR, pseudoprogression, steroid discontinuation); assay type: in vivo, human
# Excerpt: (§1) A randomized, double blind, placebo controlled multicenter Phase III trial of bevacizumab, temozolomide and radiotherapy, followed by bevacizumab and temozolomide versus placebo, temozolomide and radiotherapy followed by placebo and temozolomide in patients with newly diagnosed glioblastoma (AVAglio)
# (§2) The AVAglio trial evaluated the efficacy and safety of bevacizumab in combination temozolomide and radiotherapy for newly diagnosed glioblastoma. This study was designed as a prospective, randomized, double blind, placebo controlled Phase III evaluation of bevacizumab plus chemotherapy versus chemotherapy alone. To be eligible, patients must have newly diagnosed glioblastoma with a tissue diagnosis that has been established following either a surgical resection or biopsy. By adding bevacizumab to chemotherapy and radiotherapy, the AVAglio trial aimed to improve overall survival (OS) and progression-free survival (PFS) for this group of patients who have limited therapeutic options and face a particularly poor prognosis. The primary objective was to compare OS and PFS of patients randomised to temozolomide and radiotherapy only or to temozolomide and radiotherapy plus bevacizumab.
# (§3) Study Design—This trial consisted of three phases (Concurrent, Maintenance, and Monotherapy) and two (2) treatment arms: temozolomide and radiotherapy (Arm 1) and temozolomide and radiotherapy plus bevacizumab (Arm 2). Patients were randomly assigned (1:1) to either arm, see FIG. 1.
# (§4) Eligible patients received 2 Gy radiotherapy 5 days a week for 6 weeks and 75 mg/m^2 temozolomide (TMZ) orally daily for 6 weeks from the first day to the last day of radiotherapy. After a 4 week treatment break, eligible patients received 6 cycles of 150-200 mg/m^2 TMZ on days 1-5 of a every 4 weeks schedule in combination with 10 mg/kg placebo IV every 2 weeks. TMZ was administered orally starting with a 150 mg/m^2 dose that could be escalated. Placebo monotherapy (15 mg/kg every 3 weeks) was then continued until disease progression.
# as §4, with “TMZ” for “temozolomide (TMZ)”, “radiotherapy in combination with 10 mg/kg bevacizumab IV every 2 weeks.” for “radiotherapy.”, “bevacizumab” for “placebo”, “Bevacizumab” for “Placebo”
# (§5) The initial bevacizumab infusion was over 90 minutes, with subsequent infusions over 60 minutes and then 30 minutes, as tolerated. Bevacizumab was administered on the day of the last day of radiotherapy and TMZ, i.e., the day before the start of the TMZ treatment break.
# Analyses of PFS was based on tumor assessments MacDonald Response Criteria (modified WHO criteria) using MRI of the brain and a neurological evaluation as described in Macdonald et al., Response criteria for phase II studies of supratentorial malignant glioma. J Clin Oncol 1990; 8:1277-80.
# Tumor assessments were performed at baseline, at the end of the 4 week treatment break, then then every 8 weeks.
# Patients≥18 years of age and with newly diagnosed supratentorial Glioblastoma (GBM) with a tissue diagnosis that has been established following either a surgical resection or biopsy. This includes treatment-naïve—(chemotherapy and radiotherapy)—patients with prior diagnosis of a lower grade astrocytoma that has been upgraded to a histologically verified GBM. Patients must have WHO performance status≤2.
# Eligible patients had newly diagnosed glioblastoma (WHO performance status≤2). […]
# [2] = AVAglio Phase III trial, safety (adverse events); assay type: in vivo, human; set-up: unit not given here
# Excerpt: as §1, §2, §3, §4
# as §4, with “TMZ” for “temozolomide (TMZ)”, “radiotherapy in combination with 10 mg/kg bevacizumab IV every 2 weeks.” for “radiotherapy.”, “bevacizumab” for “placebo”, “Bevacizumab” for “Placebo”
# as §5
# Patients≥18 years of age and with newly diagnosed supratentorial Glioblastoma (GBM) with a tissue diagnosis that has been established following either a surgical resection or biopsy. […] Patients must have WHO performance status≤2.
# Eligible patients had newly diagnosed glioblastoma (WHO performance status≤2). After surgical resection, patients were randomized to concurrent therapy with temozolomide with radiation and placebo or temozolomide with radiation and bevacizumab followed by a 28 day treatment break, maintenance therapy with 10 mg/kg bevacizumab or placebo administered every two weeks in combination with temozolomide, and monotherapy with 15 mg/kg bevacizumab or placebo was administered every three weeks until disease progression or unacceptable toxicity. Patients in the placebo arm were treated at the investigators discretion at progression.
substance,measurement,setting,value
bevacizumab + RT + T: Arm 2 of AVAglio: bevacizumab (recombinant humanized anti-VEGF monoclonal antibody) with temozolomide and radiotherapy,"Best ORR: Difference, % (95% CI)","[1]; Bv + T/RT versus P + T/RT, p =< 0.001",20.4 (13.9-26.8) %
same,"Events, %","[1]; PFS events, percent of patients",77.3%
same,HR (95% CI),"[1]; PFS hazard ratio, bevacizumab + RT + T versus placebo + RT + T, log-rank p < 0.0001",0.64 (0.55-0.74)
same,effect on ORR (in words),[1]; addition to first line temozolomide plus radiotherapy,significantly improves ORR
same,"Potential PsPD, %",[1]; end of treatment break,2.6%
same,PFS (months),"[1]; median progression-free survival, MacDonald Response Criteria, patients with newly diagnosed glioblastoma",10.6 months
same,Best ORR: % (95% CI),[1]; objective response rate,38.4 (33.5-43.5) %
same,patients on steroids at baseline able to discontinue steroids for part of their progression-free survival interval,[1]; patients on steroids at baseline,66%
same,"Confirmed PsPD, %",[1]; post-2nd maintenance cycle,2.2%
same,"Rejected PsPD, %",[1]; post-2nd maintenance cycle,0.2%
same,improvement in PFS (in words),[1]; versus chemotherapy in combination with radiotherapy,statistically significant and clinically meaningful improvement in PFS
same,Thromboembolic event Arterial (all grade),[2],5
same,Thromboembolic event Venous (Grade ≥3),[2],7.3
same,CHF (grade ≥3),[2]; adverse event,0.4
same,Fistula/abscess (all grade),[2]; adverse event,0.6
same,Hypertension (Grade ≥3),[2]; adverse event,10.3
same,PRES (Posterior reversible encephalopathy syndrome) (all grade),[2]; adverse event,0
same,Proteinuria (Grade ≥3),[2]; adverse event,3.7
same,Bleeding (Grade ≥3) Cerebral Hemorrhage,"[2]; adverse event, Grade ≥3",1.5
same,Bleeding (Grade ≥3) Mucocutaneous bleeding,"[2]; adverse event, Grade ≥3",0.4
same,Bleeding (Grade ≥3) Other,"[2]; adverse event, Grade ≥3",0.6
same,Bleeding (all grade) Cerebral Hemorrhage,"[2]; adverse event, all grade",2.6
same,Bleeding (all grade) Mucocutaneous bleeding,"[2]; adverse event, all grade",26.7
same,Bleeding (all grade) Other,"[2]; adverse event, all grade",11.6
